Measured values as given in patent publication US20250262210A1 (TRUSTEES OF COLUMBIA UNIVERSITY IN THE CITY OF NEW YORK, published 2025).

Key:
Assay in all cases: IP/MS, LZTR1 R810W-FLAG, U87
PARP14 = PARP14 (human, UniProt Q460N5 1-1801, limits assumed)
In short: (§1)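 Extracted peptides in 3% acetonitrile/0.1% formic acid ran on a 50 cm C18 column into an Orbitrap Fusion, with MaxQuant identification and spectral counting.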

MAP4K4 = MAP4K4 (human, UniProt O95819 2-1239, limits assumed)
In short: as §1

DMXL2 = DMXL2 (human, UniProt Q8TDJ6 1-3036, limits assumed)
DMXL2, sequence (Q8TDJ6 whole entry): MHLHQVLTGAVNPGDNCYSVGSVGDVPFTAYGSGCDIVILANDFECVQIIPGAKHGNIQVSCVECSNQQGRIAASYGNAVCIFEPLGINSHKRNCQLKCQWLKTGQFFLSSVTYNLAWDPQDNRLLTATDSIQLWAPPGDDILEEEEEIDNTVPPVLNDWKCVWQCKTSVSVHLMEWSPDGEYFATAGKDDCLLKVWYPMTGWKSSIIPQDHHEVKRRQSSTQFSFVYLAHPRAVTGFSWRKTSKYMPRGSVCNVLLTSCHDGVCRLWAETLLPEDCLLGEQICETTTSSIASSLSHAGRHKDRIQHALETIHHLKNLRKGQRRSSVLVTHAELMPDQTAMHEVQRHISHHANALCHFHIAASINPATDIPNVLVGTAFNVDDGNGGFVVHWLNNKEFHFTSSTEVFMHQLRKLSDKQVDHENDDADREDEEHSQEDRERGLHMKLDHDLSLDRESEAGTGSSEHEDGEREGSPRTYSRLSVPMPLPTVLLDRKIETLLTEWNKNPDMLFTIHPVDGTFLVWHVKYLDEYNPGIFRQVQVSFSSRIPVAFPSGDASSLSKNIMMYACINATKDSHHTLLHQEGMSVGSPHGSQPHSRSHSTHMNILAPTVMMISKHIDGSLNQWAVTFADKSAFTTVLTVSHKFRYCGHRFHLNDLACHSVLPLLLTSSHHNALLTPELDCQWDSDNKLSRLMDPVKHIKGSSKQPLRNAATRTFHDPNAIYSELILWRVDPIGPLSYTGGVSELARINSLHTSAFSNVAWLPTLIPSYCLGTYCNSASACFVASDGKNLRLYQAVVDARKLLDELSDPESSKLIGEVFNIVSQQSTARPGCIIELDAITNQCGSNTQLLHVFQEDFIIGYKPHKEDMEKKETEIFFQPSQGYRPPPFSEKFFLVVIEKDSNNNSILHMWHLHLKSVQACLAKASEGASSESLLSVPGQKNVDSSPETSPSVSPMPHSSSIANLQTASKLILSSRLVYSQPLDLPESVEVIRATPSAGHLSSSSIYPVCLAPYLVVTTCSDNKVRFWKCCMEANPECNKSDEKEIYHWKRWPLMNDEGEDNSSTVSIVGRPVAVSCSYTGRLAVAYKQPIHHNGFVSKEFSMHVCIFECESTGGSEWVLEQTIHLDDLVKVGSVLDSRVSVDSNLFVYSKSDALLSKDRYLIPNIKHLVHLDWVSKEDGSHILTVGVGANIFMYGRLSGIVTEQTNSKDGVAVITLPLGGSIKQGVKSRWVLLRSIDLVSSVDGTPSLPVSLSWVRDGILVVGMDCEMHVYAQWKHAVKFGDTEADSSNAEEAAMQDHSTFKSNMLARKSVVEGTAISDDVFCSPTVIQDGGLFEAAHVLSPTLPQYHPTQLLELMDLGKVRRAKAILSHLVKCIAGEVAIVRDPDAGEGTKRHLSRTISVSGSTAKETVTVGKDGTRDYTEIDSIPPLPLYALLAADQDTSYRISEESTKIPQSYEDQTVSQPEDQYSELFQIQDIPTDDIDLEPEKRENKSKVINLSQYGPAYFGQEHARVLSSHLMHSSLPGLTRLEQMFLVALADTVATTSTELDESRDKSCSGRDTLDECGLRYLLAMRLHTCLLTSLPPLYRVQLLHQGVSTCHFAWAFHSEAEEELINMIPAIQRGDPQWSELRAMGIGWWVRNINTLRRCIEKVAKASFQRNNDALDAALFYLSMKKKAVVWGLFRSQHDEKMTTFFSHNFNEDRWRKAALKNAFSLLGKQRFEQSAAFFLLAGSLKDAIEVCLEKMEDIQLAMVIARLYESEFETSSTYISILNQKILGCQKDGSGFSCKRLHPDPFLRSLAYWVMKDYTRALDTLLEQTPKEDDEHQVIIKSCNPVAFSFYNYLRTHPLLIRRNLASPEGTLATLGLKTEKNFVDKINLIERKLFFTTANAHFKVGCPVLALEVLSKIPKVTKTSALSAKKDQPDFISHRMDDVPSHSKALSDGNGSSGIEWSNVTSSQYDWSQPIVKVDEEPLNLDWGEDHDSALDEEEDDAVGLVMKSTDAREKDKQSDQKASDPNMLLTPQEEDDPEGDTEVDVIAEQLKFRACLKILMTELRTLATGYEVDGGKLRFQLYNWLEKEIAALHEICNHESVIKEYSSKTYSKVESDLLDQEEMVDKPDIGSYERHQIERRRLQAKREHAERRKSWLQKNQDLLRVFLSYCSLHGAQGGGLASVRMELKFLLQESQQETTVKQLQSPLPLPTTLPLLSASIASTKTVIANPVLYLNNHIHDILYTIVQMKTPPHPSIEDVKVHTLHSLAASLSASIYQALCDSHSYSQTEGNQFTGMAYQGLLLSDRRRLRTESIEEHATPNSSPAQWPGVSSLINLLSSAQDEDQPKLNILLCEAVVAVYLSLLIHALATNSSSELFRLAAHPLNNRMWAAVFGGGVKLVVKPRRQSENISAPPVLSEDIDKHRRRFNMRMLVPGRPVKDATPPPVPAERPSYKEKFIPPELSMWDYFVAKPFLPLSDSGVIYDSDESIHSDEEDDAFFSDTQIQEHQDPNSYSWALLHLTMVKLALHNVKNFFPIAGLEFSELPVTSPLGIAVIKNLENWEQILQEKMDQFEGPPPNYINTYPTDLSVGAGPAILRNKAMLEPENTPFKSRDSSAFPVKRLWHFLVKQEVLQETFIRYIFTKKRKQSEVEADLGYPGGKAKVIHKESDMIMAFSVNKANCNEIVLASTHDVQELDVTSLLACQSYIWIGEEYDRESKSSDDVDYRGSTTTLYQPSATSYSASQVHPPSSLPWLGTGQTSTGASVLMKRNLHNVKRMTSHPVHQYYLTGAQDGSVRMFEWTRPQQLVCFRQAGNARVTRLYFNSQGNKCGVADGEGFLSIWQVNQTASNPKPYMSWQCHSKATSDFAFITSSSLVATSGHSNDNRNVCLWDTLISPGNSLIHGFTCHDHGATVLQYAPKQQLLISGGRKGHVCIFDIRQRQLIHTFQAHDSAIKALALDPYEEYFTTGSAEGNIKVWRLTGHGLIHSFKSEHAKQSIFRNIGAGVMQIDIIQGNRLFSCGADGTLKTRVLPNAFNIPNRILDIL
In short: as §1

THADA = THADA (human, UniProt Q6YHU6 1-1953, limits assumed)
THADA, sequence (Q6YHU6 whole entry): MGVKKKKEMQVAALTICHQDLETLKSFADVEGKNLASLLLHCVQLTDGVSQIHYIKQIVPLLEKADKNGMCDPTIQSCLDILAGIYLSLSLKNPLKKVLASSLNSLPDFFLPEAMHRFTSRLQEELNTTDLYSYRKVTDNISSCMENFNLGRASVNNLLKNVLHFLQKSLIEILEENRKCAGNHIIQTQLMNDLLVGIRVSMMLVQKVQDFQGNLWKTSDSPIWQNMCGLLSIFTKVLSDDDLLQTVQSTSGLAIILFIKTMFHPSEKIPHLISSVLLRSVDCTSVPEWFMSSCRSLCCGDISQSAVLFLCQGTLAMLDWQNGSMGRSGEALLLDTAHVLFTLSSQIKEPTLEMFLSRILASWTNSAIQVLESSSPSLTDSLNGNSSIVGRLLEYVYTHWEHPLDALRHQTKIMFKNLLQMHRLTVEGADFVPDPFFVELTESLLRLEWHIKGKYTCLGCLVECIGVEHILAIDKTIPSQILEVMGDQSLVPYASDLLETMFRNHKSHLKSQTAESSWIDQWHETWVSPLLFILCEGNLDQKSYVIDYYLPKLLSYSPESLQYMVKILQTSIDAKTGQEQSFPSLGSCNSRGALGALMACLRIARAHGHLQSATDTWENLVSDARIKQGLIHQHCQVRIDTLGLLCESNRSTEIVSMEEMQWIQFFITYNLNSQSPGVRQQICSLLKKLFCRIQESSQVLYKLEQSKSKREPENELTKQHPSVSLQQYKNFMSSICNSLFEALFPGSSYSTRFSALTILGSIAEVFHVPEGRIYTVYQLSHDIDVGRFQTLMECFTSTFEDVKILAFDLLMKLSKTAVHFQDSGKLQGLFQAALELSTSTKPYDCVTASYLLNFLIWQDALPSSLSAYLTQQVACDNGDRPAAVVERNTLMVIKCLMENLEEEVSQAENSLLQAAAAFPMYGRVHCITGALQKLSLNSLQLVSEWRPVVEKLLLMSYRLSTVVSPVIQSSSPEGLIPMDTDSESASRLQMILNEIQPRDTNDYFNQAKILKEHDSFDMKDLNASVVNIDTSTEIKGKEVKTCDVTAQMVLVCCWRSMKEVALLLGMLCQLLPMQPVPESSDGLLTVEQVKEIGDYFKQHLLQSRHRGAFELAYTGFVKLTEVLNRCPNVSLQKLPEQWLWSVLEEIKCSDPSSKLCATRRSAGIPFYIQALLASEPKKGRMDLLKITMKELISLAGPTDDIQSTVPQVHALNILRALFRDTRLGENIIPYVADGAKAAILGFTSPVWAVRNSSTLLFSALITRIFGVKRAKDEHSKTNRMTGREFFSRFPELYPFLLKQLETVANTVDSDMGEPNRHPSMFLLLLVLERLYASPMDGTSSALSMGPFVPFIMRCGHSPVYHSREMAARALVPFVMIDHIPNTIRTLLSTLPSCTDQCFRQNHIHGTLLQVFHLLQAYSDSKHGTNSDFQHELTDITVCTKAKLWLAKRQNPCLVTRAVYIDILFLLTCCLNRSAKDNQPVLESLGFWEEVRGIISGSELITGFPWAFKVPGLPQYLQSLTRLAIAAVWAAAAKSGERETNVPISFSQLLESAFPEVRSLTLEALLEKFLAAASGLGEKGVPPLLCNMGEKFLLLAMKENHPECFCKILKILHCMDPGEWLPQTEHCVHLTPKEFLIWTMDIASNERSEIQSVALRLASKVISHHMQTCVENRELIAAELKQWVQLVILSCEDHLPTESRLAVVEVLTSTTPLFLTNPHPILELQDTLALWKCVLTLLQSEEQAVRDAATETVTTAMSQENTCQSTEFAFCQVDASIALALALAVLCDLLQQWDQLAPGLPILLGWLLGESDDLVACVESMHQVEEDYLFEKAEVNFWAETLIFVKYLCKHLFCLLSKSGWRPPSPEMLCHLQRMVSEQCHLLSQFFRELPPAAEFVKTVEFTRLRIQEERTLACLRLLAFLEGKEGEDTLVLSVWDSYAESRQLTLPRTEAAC
In short: as §1

KIAA1217 = KIAA1217 (human, UniProt Q5T5P2 1-1943, limits assumed)
In short: as §1

SBNO2 = biological target: T1, SBNO2 (human, UniProt Q9Y2G9 1-1366, limits assumed)
T1 sequence (looked up): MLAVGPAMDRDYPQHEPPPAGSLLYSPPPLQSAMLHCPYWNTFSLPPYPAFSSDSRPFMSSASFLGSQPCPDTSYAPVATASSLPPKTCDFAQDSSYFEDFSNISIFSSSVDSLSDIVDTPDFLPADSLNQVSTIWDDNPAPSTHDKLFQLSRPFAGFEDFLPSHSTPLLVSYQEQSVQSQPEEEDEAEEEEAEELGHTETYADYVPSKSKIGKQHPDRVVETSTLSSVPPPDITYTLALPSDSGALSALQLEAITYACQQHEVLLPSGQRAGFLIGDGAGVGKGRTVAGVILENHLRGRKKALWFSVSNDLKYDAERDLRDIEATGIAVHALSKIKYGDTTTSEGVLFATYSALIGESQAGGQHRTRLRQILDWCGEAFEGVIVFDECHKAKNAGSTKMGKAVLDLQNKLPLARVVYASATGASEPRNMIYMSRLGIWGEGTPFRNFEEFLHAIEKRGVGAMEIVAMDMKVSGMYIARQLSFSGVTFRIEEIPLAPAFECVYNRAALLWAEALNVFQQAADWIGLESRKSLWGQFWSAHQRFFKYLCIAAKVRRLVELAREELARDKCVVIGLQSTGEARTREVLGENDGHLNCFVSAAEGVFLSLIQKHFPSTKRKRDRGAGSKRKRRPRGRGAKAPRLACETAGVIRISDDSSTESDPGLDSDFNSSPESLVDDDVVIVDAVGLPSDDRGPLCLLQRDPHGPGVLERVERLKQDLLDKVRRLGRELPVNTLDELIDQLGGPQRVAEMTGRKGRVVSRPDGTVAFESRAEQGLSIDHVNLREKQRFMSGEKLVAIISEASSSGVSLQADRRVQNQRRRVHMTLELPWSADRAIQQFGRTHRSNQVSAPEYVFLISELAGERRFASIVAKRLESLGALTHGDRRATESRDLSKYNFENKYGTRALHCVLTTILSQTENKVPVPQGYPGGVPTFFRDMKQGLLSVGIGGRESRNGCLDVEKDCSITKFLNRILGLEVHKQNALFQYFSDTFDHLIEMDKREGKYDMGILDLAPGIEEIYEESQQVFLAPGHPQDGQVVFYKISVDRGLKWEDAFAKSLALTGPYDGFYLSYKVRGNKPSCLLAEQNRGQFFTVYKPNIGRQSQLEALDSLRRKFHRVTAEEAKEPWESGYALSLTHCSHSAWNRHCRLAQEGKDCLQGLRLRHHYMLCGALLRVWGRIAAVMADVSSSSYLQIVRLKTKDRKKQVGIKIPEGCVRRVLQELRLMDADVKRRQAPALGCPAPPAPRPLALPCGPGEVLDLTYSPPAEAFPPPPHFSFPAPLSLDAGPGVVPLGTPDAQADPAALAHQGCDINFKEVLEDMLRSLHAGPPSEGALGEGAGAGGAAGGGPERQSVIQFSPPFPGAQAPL
In short: as §1

Measured: binding result

B1: LZTR1 R810W-FLAG (other, human, UniProt Q8N653 1-840, looked up)
chain: MAGPGSTGGQIGAAALAGGARSKVAPSVDFDHSCSDSVEYLTLNFGPFETVHRWRRLPPCDEFVGARRSKHTVVAYKDAIYVFGGDNGKTMLNDLLRFDVKDCSWCRAFTTGTPPAPRYHHSAVVYGSSMFVFGGYTGDIYSNSNLKNKNDLFEYKFATGQWTEWKIEGRLPVARSAHGATVYSDKLWIFAGYDGNARLNDMWTIGLQDRELTCWEEVAQSGEIPPSCCNFPVAVCRDKMFVFSGQSGAKITNNLFQFEFKDKTWTRIPTEHLLRGSPPPPQRRYGHTMVAFDRHLYVFGGAADNTLPNELHCYDVDFQTWEVVQPSSDSEVGGAEVPERACASEEVPTLTYEERVGFKKSRDVFGLDFGTTSAKQPTQPASELPSGRLFHAAAVISDAMYIFGGTVDNNIRSGEMYRFQFSCYPKCTLHEDYGRLWESRQFCDVEFVLGEKEECVQGHVAIVTARSRWLRRKITQARERLAQKLEQEAAPVPREAPGVAAGGARPPLLHVAIREAEARPFEVLMQFLYTDKIKYPRKGHVEDVLLIMDVYKLALSFQLCRLEQLCRQYIEASVDLQNVLVVCESAARLQLSQLKEHCLNFVVKESHFNQVIMMKEFERLSSPLIVEIVRRKQQPPPRTPLDQPVDIGTSLIQDMKAYLEGAGAEFCDITLLLDGHPRPAHKAILAARSSYFEAMFRSFMPEDGQVNISIGEMVPSRQAFESMLRYIYYGEVNMPPEDSLYLFAAPYYYGFYNNRLQAYCKQNLEMNVTVQNVLQILEAADKTQALDMKRHCLHIIVHQFTKVSKLPTLWSLSQQLLLDIIDSLASHISDKQCAELGADI
notes: Stably expressed in U87 cells by lentivirus; also called LZTR1-FLAG-R810W; LZTR1 RW; not shown: FLAG tag
binds: PARP14 | MAP4K4 | DMXL2 | THADA | KIAA1217 | SBNO2
